Results taken from publication PMC3586275 (Biochemistry, 2009).

Target: the molecule itself
Assay: SEC

B1: streptococcal coaggregation regulator (ScaR) (natural protein, Streptococcus gordonii, UniProt Q9RFN3 1-215, looked up)
chain: MTPNKEDYLKCLYELGTRHNKITNKEIAQLMQVSPPAVTEMMKKLLAEELLIKDKKAGYLLTDLGLKLVSDLYRKHRLIEVFLVHHLGYTTEEIHEEAEVLEHTVSDHFVERLDQLLDYPKACPHGGTIPAKGELLVEKHKLTLEEAKEKGDYILARVHDNFDLLTYLERNGLQVGKTIRFLGYDDFSHLYSLEVDGQEIQLAQPIAQQIYVEKI
stoichiometry N: 2
